Measured values from a protein production outcome set (Wang et al. 2014).

Test: label from the status in PepcDB records
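Also: failed if final PepcDB status was selected cloned or expressed and not failed if soluble or beyond.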

Sequence | protein production
MPIRGFHYRGDEAIYPASVVKLFYLVAALEWLQQGMIQPSAELDRALRDMIVDSSNDATGYIVDLLSGTTSGPELGDGPFKTWQFQRNIVNRYYQSLMWPELQPINVNQKTWGDGPYGRERAFYGPEFENRNKLTTNATARLLHAIAGGVAVSPSASQRMLNLLNRPFDPRSLAEDPENQVTGFLGQDLPQGSQLWSKAGWMSRVRHDAAYLEIPGLPPHLLVAFTEGKEHANNEAILPFIAQQVRQQLQPALEHHHHHH | failed
MRGLSLSPVVLPEVRREAGVELRKARLEDVDAIYWLIRYWAEKGLMLVRSHSHLYENIRDFWVLEDEDGQIVGTVALHVLWRDLAEIRGLAVHPTRQGQGLGRWLVLGAEREARDLGLPRVFAWTLQVNFFRALGYRVTSREALPPKVWSECNACPFYENCREIAVVKEFSPGASGG | failed
MMRFVIGFLLSILASISLVSPANAAVIDHDKVVGFEEVTPTTITQKVAKRFQPYLTVSTGCVPFPAVDADGNTSGGLAPTGPHNGGCSSHIGQVYSRSTWHNGVWAIMYAWYFPKDSPSPGLGHRHDWEGIVVWVDNPANPSPQLLSIAYSQHGNFYNVAPTDRNTREQRPLIRYSHAWPLNHSLWIHDQVGGTQPLIGWDDLTPAARHALNTTDFGAANVPFNDHNFINNLRKAWYRLEHHHHHH | failed
MRAMRWILPLLLAIGVAAPARAASEWAVKDGSVQVKAHADEQGRAVVRASIEIAAPPSVVFGVILDCGRAARMSPGVKRCRVVSRAADGSEVREHTVKWGFFLPALQSRSRLSLQPDREIRFTCIGGDIRACDGFWRLEPLDGGMRTRVTYDLWATAPYAAPAGLVSSLMRRTVPQSLAALRRECEGG | failed
MLKKLIEKVKSLTSVIKIVFFISVLVLIIVEMIHLKRTISVEQLKSVFGQLSPMNLFLIILVGVIAVLPTTGYDFVLNGLLRTDKSKRYILQTSWCINTFNNLSGFGGLIDIGLRMAFYGKKGQEKSDLREVTRFLPYLISGLSFISVIALIMSHIFHAKASVDYYYLVLIGASMYFPVIYWISGHKGSHYFGDMPSSTRIKLGVVSFFEWGCAAAAFIIIGYLMGIHLPVYKILPLFCIGCAVGIVSLIPGGLGSFELVLFTGFAAEGLPKETVVAWLLLYRLAYYIIPFFAGIYFFIHYLGSQINQRYENVPKELVSTVLQTMVSHLMRILGAFLIFSTAFFENITYIMWLQKLGLDPLQEQMLWQFPGLLLGVCFILLARTIDQKVKNAFPIAIIWITLTLFYLNLGHISWRLSFWFILLLLGLLVIKPTLYKKQFIYSWEERIKDGIIIVSLMGVLFYIAGLLFPIRAHITGGSIERLHYIIAWEPIALATLILTLVYLCLVKILQGKSCQIGDVFNVDRYKKLLQAYGGSSDSGLAFLNDKRLYWYQKNGEDCVAFQFVIVNNKCLIMGEPAGDDTYIREAIESFIDDADKLDYDLVFYSIGQKLTLLLHEYGFDFMKVGEDALVNLETFTLKGNKYKPFRNALNRVEKDGFYFEVVQSPHSQELLNSLEEISNTWLEGRPEKGFSLGYFNKDYFQQAPIALVKNAEHEVVAFANIMPNYEKSIISIDLMRHDKQKIPNGVMDFLFLSLFSYYQEKGYHYFDLGMAPLSGVGRVETSFAKERMAYLVYHFGSHFYSFNGLHKYKKKFTPLWSERYISCSRSSWLICAICALLMEDSKIKIVK | failed
MQNAESWFKKYWHLSVLVIAALISVKLRILNPWNSVFTWTVRLGGNDPWYYYRLIENTIHNFPHRIWFDPFTYYPYGSYTHFGPFLVYLGSIAGIIFSATSGESLRAVLAFIPAIGGVLAILPVYLLTREVFDKRAAVIAAFLIAIVPGQFLQRSILGFNDHHIWEAFWQVSALGTFLLAYNRWKGHDLSHNLTARQMAYPVIAGITIGLYVLSWGAGFIIAPIILAFMFFAFVLAGFVNADRKNLSLVAVVTFAVSALIYLPFAFNYPGFSTIFYSPFQLLVLLGSAVIAAAFYQIEKWNDVGFFERVGLGRKGMPLAVIVLTALIMGLFFVISPDFARNLLSVVRVVQPKGGALTIAEVYPFFFTHNGEFTLTNAVLHFGALFFFGMAGILYSAYRFLKRRSFPEMALLIWAIAMFIALWGQNRFAYYFAAVSAVYSALALSVVFDKLHLYRALENAIGARNKLSYFRVAFALLIALAAIYPTYILADAQSSYAGGPNKQWYDALTWMRENTPDGEKYDEYYLQLYPTPQSNKEPFSYPFETYGVISWWDYGHWIEAVAHRMPIANPFQAGIGNKYNNVPGASSFFTAENESYAEFVAEKLNVKYVVSDIEMETGKYYAMAVWAEGDLPLAEKYYGGYFYYSPTGTFGYANSQWDIPLNSIIIPLRIPSELYYSTMEAKLHLFDGSGLSHYRMIYESDYPAEWKSYSSQVNLNNESQVLQTALYEAVMRARYGVSPTMGTQEVLYKYAYTQLYEKKMGIPVKIAPSGYVKIFERVKGAVVTGKVSANVTEVSVNATIKTNQNRTFEYWQTVEVKNGTYTVVLPYSHNSDYPVKPITPYHIKAGNVVKEITIYESQVQNGEIIQLDL | failed
MNALKNLSLILLLSLAFTGCHNKSSKINDFNLLLYAPEYASGFDIKGAGGKESVLITVRNPWQGADSVTTWLFIVRNGEEVPEGFAGQVLKGDAKRIVAMSSTHIAMLDAIGEVRCITGVSGIDYISNPDIQARRDSIGDVGYEGNINYELLLSLDPDLVLLYGVNGASAMESKLEELDIPFMYVGDYLEESPLGKAEWMVVLSEVTGKREKGEKAFAAIPVRYNALKKKVADSTLGTPSVMLNVPYGDSWFMPSTQSYVARLITDAGGRYIYQKNTGNASIPIDLEEAYLLASDADMWLNVGMANSLDDLKASCPKFTDTRCFKNGEVYNNNARTNTAGGNDYYESAVVNPDIVLRDLVKIFHPELVQEECVYYKQLK | failed
MNLETKPIAETPNFIVLDQYEKIEQSGSYQSENRLEAELIADLQNQGYEYRKDLNSQSRLLENLRAQLQRLNDVAFSDGEWARFLTEYLDRPAENITDKTRKIHDDHIYDFAFDDGRLKNIYLLDKKNLARNHVQLINQFEQTGTHANRYDVTVLVNGLPLVQIELKKRGVAVREAFNQVHRYSKESFNSGNSLFKFLQIFVISNGTDTRYFANTTKRDKNSFDFTMNWARSDNHPIKDLKDFTATFLQKSVLLSVLLHYSVFDANDTLLIMRPYQIAAAERILWKINSSAQAKNWSGPESGGYVWHTTGSGKTLTGFKAARLATESAFIDKVFFVVDRKDLDYQTMKEYQRFSPDSVNGSESTAGLKRNLEKDGNKIIVTTIQKLNNLMKSEDNLPVYHRQVVFIFDECHRSQFGEAQKNLKKKFKKFCQFGFTGTPIFPENALGAETTAGVFGRELHSYVITDAIRDEKVLKFKVDYNDVRPQFKAVEAEQDEKELSAAENRQALLHPERIREITQYILSRFRQKTHRLNAGGKGFNAMFAVSSVDAAKCYYEAFKTQQAGSLHPLKTATIFSFAANEEQNAVGEIVDETFEPEAMDSSAKEFLQAAINDYNACFKTNFGTDSKAFQNYYRDLAKRVKNREVDLLIVVGMFLTGFDAPTLNTLFVDKNLRYHGLMQAFSRTNRIYDATKTFGNIVCFRDLEQATIDAITLFGDKNTKNVVLEKSYEEYMNGYTDSQTGEARRGYLDVAKELHERFPDPDKIETEKDKKDFAKLFGEYLRAENVLQNYDEFAALRELQNVDAADEDAMKAFQEKYYLSDEDVQEMRKVPMPSERAVQDYRSAYNDIRDWLRRQKAGEQKEQSKIDWDDVVFEVDLLKSQEINLDYILQLVFEHHKKIKGKAELVEEIRRIIRASIGHRAKEGLIVDFINDTDLDKVPDVPAILETFYTYAQEVMRHEAAGLIAAEGLNETAAKRYLTGSLKRGYASENGTELTETLPKMSPLNPQYLTKKQSVFQKIAAFVEKFAGIGADI | failed
MSKHVNWSGVFPAVTTQFNADFSVNLEETHTVISNLVRDGVSGLVVCGSVGENTSLTIEEKMAVTEVAKDASGGRVPVICGIAEFTSAGAAKVAKAVERVGVDGIMVMPALVYSSKPHETAEHFRSVASGTDLPVMVYNNPPIYRNDVTPDILVSLADCENIVCFKDSSGDTRRFIDVRNQVGERFILFAGLDDVVLESVAVGAQGWISGMSNVFPKEGETIFRLARAGRFAEAMPIYEWLMPILHLDARPDLVQCIKLCEQLAGRGSALTRPPRLALRGADREHVERIMAKALA | failed
MGGEASPRSLQDWRHVHNTIIPAHVLSLDDVRERAGRNRLEVAYLDDVLVGCSTVRPPADAPTPDAPATATVIARVLAAHRGRGFGGEMYERGLKHARALGAQVIETVVLSSNPDGLRFALKHGFAETERYLLPGDTVPWIDLRLSV | failed
MRITVMTAGEQIITLDVDSQETVENVKALLEVESNVPIQQQQLLYNGNEMGNSDKLSALGVKDDDLLMMMVSNASSGSATSAAGNDLGMNPDGSALNPAAFQQHIRGDSNLMGQLFQNDPELAQVISGSDLNKLQDVLRARHRQRSVLQRQKEEELALLYADPFDVEAQRKIEAAIRQKGIDENWEAALEHNPEGFARVIMLYVDMEVNGVPLKAFVDSGAQSTIISKSCAERCGLLRLMDQRYKGIAHGVGQTEILGRIHVAPIKIGNNFYPCSFVVLDSPNMEFLFGLDMLRKHQCTIDLKENVMTVGGGEVSVPFLQEKDIPSRFLDEERVPNDASSSGATVPSGFTEKKNNTVANPTSQQPKRQNTSEGPEFEAKIAKLVELGFSRDSVIQALKLFEGNEEQAAGFLFGG | failed
MELQDTIFKRQSVRKFKNQDVSDEDILKMIKAAGAAPSGKNIQNWHFVVIKRRDLMEKIADVITKKQQEILVEMDKVSVDKANRFRKFVKNFTLFYLKAPVLVLVFTKVYNPSGYYELELIDAPKETIDKLFIRNPGMQSLGAAIENFTLSAIELGYGSCWLTSQNYAADEIEAVLEAETGFEKGEYFLGAMLALGVPEDNLKSPSKKPVEEICTFIK | not failed
MAKWRLATATLRRQLQSSSPTISTFKNPTKALSAAAHQSTRSYSTTQTDDSRGKWLTLPPFSPTIDGTAVGKDLLSDGDSVKSSTDNSKTTALRWILRCRPDLPRTLVQKLFRLRQVRREMSMSVDGDELQRSQLKRVAAKESLNVGDRIYLPLSVDNDTPQTPPAKKESFQCSDEERKFVCSLVLYKDPAIIVLNKPHGLAVQGGSGIKTSIDELAASCLKFDKSESPRLVHRLDRDCSGLLVLARTQTAATVLHSIFREKTTGASAYGVKKNVKSLKRKYMALVIGCPPRQRGQISAPLRKVVVDDGKSERITVNDNGELVSTQHAITEYRVIESSPHGYTWLELRPLTGRKHQLRVHCAEVLGTPIVGDYKYGWQAHKAREPFVSSENNPTKQSSSPFGLDLDGGDVSSKQPHLHLHSKQIDLPNISQLLEKMQVSSDSDISDLDSLKFDAPLPSHMQLSFNLLKSRVETCDKN | failed
MAKSRLLLSELLDQLSFALCIVRNDYVIVKVNEYFESRVIFDGETMQGKNILELFPESADYLKRKIDTALVIESSSFSSWEQKPHLLPFKSSRPVSGEEEQMYQNLEVIPIHSED | failed
MVFIMENTNKIASLELGRLLAMFAIIALHSQVFMTYLLMDDFPVFGNIFNQLTRFAVPFFFILSGYFIQPKLTHTPLKTIQSYCAPLFKIWIVWSVLSLALPFHWRKVAENGYLAERTGYWNWLTQNPLNALFEGGMVHLWFIPALIIAVSIIGLLIHFKKTTWLIPIAVILYVYGLAGGSYQTLTEVWTPFFTRNGPFFSTLMVVIGFELRRREITLSSTNALILLLVGFAIHFSEAYWLTQFDVPFNLHDFLIGTPLMGIGVFFLLLSKPQLGHHPITFTLSKHVLGIYVCHLLFVVVFLNITGMMGITLAMRDFVIVFGTATASTLFVLIMDKTPFRQMLFR | failed
